Test results published in PMC5872582.

Molecular target: L1 ORF1p-T7 (T7-tagged ORF1 protein expressed from the L1 construct pAD2TE1) (human) (UniProt Q9UN81)
Assay: co-IP; 293T cells cotransfected with pAD2TE1 and the partner; lysis 48 h posttransfection in 160 mM NaCl, 50 mM Tris-HCl pH 7.5, 1 mM EDTA, […] NP-40 with RNaseOUT; ORF1p-T7 precipitated with anti-T7 monoclonal antibody on magnetic beads; immunoblot; signals normalized on T7 signal in IP and myc signal in WCL

UniProt Q9UN81, sequence (Q9UN81 whole entry): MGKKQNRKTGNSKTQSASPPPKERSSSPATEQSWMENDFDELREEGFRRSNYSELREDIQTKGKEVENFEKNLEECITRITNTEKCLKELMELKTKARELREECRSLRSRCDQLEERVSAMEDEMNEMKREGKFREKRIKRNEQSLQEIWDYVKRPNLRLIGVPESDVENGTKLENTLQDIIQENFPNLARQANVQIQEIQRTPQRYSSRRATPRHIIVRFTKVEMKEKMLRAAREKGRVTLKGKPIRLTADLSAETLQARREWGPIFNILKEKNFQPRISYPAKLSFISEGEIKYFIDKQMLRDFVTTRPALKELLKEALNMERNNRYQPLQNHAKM

| Substance | normalized densitometric intensity of the co-precipitated band [%] |
| --- | --- |
| human SAMHD1 T592A, myc-tagged (from UniProt Q9Y3Z3 1-626) (natural protein) | 100 |
| human SAMHD1 T592D, myc-tagged (from UniProt Q9Y3Z3 1-626) (natural protein) | 24 |
